# Measurements published in IntAct's records for PubMed 11956294.
# B1: Inducible T-cell costimulator (Homo sapiens), Q9Y6W8 (parent)
# chain: MKSGLWYFFLFCLRIKVLTGEINGSANYEMFIFHNGGVQILCKYPDIVQQFKMQLLKGGQILCDLTKTKGSGNTVSIKSLKFCHSQLSNNSVSFFLYNLDHSHANYYFCNLSIFDPPPFKVTLTGGYLHIYESQLCCQLKFWLPIGCAAFVVVCILGCILICWLTKKKYSSSVHDPNGEYMFMRAVNTAKKSRLTDVTL
# partner: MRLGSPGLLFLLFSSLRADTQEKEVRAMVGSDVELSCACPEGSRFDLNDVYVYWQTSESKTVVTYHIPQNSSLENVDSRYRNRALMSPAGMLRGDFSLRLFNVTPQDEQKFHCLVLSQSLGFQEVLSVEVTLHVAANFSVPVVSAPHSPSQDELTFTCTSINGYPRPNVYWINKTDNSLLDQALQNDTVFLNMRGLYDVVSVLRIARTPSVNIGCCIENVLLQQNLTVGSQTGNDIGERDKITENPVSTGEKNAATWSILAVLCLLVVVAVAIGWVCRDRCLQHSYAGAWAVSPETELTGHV
# Variants of: B1
# Conditions: with icosl_human ICOSLG
row,Variant,effect of a mutation on the interaction
1,K52S,increasing interaction strength
2,Q49S,decreasing interaction strength
3,Q50S,decreasing interaction strength
4,F114S,disrupting interaction strength
5,S76E,increasing interaction strength
6,F119S,disrupting interaction strength
7,D115S,disrupting interaction strength
8,P117S,disrupting interaction strength
9,K69S,disrupting interaction strength
10,K67S,disrupting interaction strength
11,F51S,disrupting interaction strength
12,D64S,decreasing interaction strength
